Starred links: 1 amine or outer side, 2 acyl side, 3 side chain; linkers in the order of their positions; H or OH if unused. Non-standard residues stand in square brackets, D forms with d. Groups on a side chain read outwards from the residue. No end group written: not given here. *: point of attachment. C20 diacid = O=C(O)CCCCCCCCCCCCCCCCCCC(=O)*; C18 diacid = O=C(O)CCCCCCCCCCCCCCCCC(=O)*; γGlu = O=C(O)[C@H](CCC(=O)[*:2])N[*:1]; αMeL = CC(C)C[C@](C)(N)C(=O)O; Orn = NCCC[C@H](N)C(=O)O; AEEA = NCCOCCOCC(=O)O; Aib = CC(C)(N)C(=O)O

First the molecules themselves.
T1: human glucose-dependent insulinotropic polypeptide (GIP) receptor (human), P48546
T1 chain: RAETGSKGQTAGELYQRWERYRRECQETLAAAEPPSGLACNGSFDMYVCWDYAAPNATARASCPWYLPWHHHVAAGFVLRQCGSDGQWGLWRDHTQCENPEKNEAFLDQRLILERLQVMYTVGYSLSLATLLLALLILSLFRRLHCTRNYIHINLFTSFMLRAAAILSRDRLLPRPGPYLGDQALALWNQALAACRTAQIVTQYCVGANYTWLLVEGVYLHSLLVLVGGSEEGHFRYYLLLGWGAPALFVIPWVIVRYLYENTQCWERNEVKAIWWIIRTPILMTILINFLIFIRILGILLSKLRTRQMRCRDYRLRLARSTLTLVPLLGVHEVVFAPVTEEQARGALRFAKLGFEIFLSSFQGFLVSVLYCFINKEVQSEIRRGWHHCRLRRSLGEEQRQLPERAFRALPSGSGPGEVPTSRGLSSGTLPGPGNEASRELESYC

B1: Example 96 (peptide)
peptide: Y[Aib]EGTFISDYSIALDKIHQ[Aib]EFVNYK([AEEA-AEEA-γGlu-C20 diacid])LAGGPSSGAPPPS-NH2
modifications: N-terminus assumed
SMILES: CC[C@H](C)[C@H](NC(=O)[C@H](CO)NC(=O)[C@H](Cc1ccc(O)cc1)NC(=O)[C@H](CC(=O)O)NC(=O)[C@H](CO)NC(=O)[C@@H](NC(=O)[C@H](Cc1ccccc1)NC(=O)[C@@H](NC(=O)CNC(=O)[C@H](CCC(=O)O)NC(=O)C(C)(C)NC(=O)[C@@H](N)Cc1ccc(O)cc1)[C@@H](C)O)[C@@H](C)CC)C(=O)N[C@@H](C)C(=O)N[C@@H](CC(C)C)C(=O)N[C@@H](CC(=O)O)C(=O)N[C@@H](CCCCN)C(=O)N[C@H](C(=O)N[C@@H](Cc1c[nH]cn1)C(=O)N[C@@H](CCC(N)=O)C(=O)NC(C)(C)C(=O)N[C@@H](CCC(=O)O)C(=O)N[C@@H](Cc1ccccc1)C(=O)N[C@H](C(=O)N[C@@H](CC(N)=O)C(=O)N[C@@H](Cc1ccc(O)cc1)C(=O)N[C@@H](CCCCNC(=O)COCCOCCNC(=O)COCCOCCNC(=O)CC[C@H](NC(=O)CCCCCCCCCCCCCCCCCCC(=O)O)C(=O)O)C(=O)N[C@@H](CC(C)C)C(=O)N[C@@H](C)C(=O)NCC(=O)NCC(=O)N1CCC[C@H]1C(=O)N[C@@H](CO)C(=O)N[C@@H](CO)C(=O)NCC(=O)N[C@@H](C)C(=O)N1CCC[C@H]1C(=O)N1CCC[C@H]1C(=O)N1CCC[C@H]1C(=O)N[C@@H](CO)C(N)=O)C(C)C)[C@@H](C)CC
B2: Example 102 (peptide)
peptide: Y[Aib]EGTFISDYSI[αMeL]LD[Orn]IHQ[Aib]EFV[dE]YK([AEEA-AEEA-γGlu-C20 diacid])LEGGPSSGAPPPS-NH2
modifications: N-terminus assumed
SMILES: CC[C@H](C)[C@H](NC(=O)[C@H](CCCN)NC(=O)[C@H](CC(=O)O)NC(=O)[C@H](CC(C)C)NC(=O)[C@](C)(CC(C)C)NC(=O)[C@@H](NC(=O)[C@H](CO)NC(=O)[C@H](Cc1ccc(O)cc1)NC(=O)[C@H](CC(=O)O)NC(=O)[C@H](CO)NC(=O)[C@@H](NC(=O)[C@H](Cc1ccccc1)NC(=O)[C@@H](NC(=O)CNC(=O)[C@H](CCC(=O)O)NC(=O)C(C)(C)NC(=O)[C@@H](N)Cc1ccc(O)cc1)[C@@H](C)O)[C@@H](C)CC)[C@@H](C)CC)C(=O)N[C@@H](Cc1c[nH]cn1)C(=O)N[C@@H](CCC(N)=O)C(=O)NC(C)(C)C(=O)N[C@@H](CCC(=O)O)C(=O)N[C@@H](Cc1ccccc1)C(=O)N[C@H](C(=O)N[C@H](CCC(=O)O)C(=O)N[C@@H](Cc1ccc(O)cc1)C(=O)N[C@@H](CCCCNC(=O)COCCOCCNC(=O)COCCOCCNC(=O)CC[C@H](NC(=O)CCCCCCCCCCCCCCCCCCC(=O)O)C(=O)O)C(=O)N[C@@H](CC(C)C)C(=O)N[C@@H](CCC(=O)O)C(=O)NCC(=O)NCC(=O)N1CCC[C@H]1C(=O)N[C@@H](CO)C(=O)N[C@@H](CO)C(=O)NCC(=O)N[C@@H](C)C(=O)N1CCC[C@H]1C(=O)N1CCC[C@H]1C(=O)N1CCC[C@H]1C(=O)N[C@@H](CO)C(N)=O)C(C)C
B3: Example 104 (peptide)
peptide: Y[Aib]EGTFISDYSI[αMeL]LD[Orn]IHQ[Aib]EFVEYK([AEEA-AEEA-γGlu-C20 diacid])LEAGPSSGAPPPS-NH2
modifications: N-terminus assumed
SMILES: CC[C@H](C)[C@H](NC(=O)[C@H](CCCN)NC(=O)[C@H](CC(=O)O)NC(=O)[C@H](CC(C)C)NC(=O)[C@](C)(CC(C)C)NC(=O)[C@@H](NC(=O)[C@H](CO)NC(=O)[C@H](Cc1ccc(O)cc1)NC(=O)[C@H](CC(=O)O)NC(=O)[C@H](CO)NC(=O)[C@@H](NC(=O)[C@H](Cc1ccccc1)NC(=O)[C@@H](NC(=O)CNC(=O)[C@H](CCC(=O)O)NC(=O)C(C)(C)NC(=O)[C@@H](N)Cc1ccc(O)cc1)[C@@H](C)O)[C@@H](C)CC)[C@@H](C)CC)C(=O)N[C@@H](Cc1c[nH]cn1)C(=O)N[C@@H](CCC(N)=O)C(=O)NC(C)(C)C(=O)N[C@@H](CCC(=O)O)C(=O)N[C@@H](Cc1ccccc1)C(=O)N[C@H](C(=O)N[C@@H](CCC(=O)O)C(=O)N[C@@H](Cc1ccc(O)cc1)C(=O)N[C@@H](CCCCNC(=O)COCCOCCNC(=O)COCCOCCNC(=O)CC[C@H](NC(=O)CCCCCCCCCCCCCCCCCCC(=O)O)C(=O)O)C(=O)N[C@@H](CC(C)C)C(=O)N[C@@H](CCC(=O)O)C(=O)N[C@@H](C)C(=O)NCC(=O)N1CCC[C@H]1C(=O)N[C@@H](CO)C(=O)N[C@@H](CO)C(=O)NCC(=O)N[C@@H](C)C(=O)N1CCC[C@H]1C(=O)N1CCC[C@H]1C(=O)N1CCC[C@H]1C(=O)N[C@@H](CO)C(N)=O)C(C)C
B4: Example 105 (peptide)
peptide: Y[Aib]EGTFISDYSI[αMeL]LD[Orn]IHQ[Aib]EFVEYK([AEEA-AEEA-γGlu-C20 diacid])LETGPSSGAPPPS-NH2
modifications: N-terminus assumed
SMILES: CC[C@H](C)[C@H](NC(=O)[C@H](CCCN)NC(=O)[C@H](CC(=O)O)NC(=O)[C@H](CC(C)C)NC(=O)[C@](C)(CC(C)C)NC(=O)[C@@H](NC(=O)[C@H](CO)NC(=O)[C@H](Cc1ccc(O)cc1)NC(=O)[C@H](CC(=O)O)NC(=O)[C@H](CO)NC(=O)[C@@H](NC(=O)[C@H](Cc1ccccc1)NC(=O)[C@@H](NC(=O)CNC(=O)[C@H](CCC(=O)O)NC(=O)C(C)(C)NC(=O)[C@@H](N)Cc1ccc(O)cc1)[C@@H](C)O)[C@@H](C)CC)[C@@H](C)CC)C(=O)N[C@@H](Cc1c[nH]cn1)C(=O)N[C@@H](CCC(N)=O)C(=O)NC(C)(C)C(=O)N[C@@H](CCC(=O)O)C(=O)N[C@@H](Cc1ccccc1)C(=O)N[C@H](C(=O)N[C@@H](CCC(=O)O)C(=O)N[C@@H](Cc1ccc(O)cc1)C(=O)N[C@@H](CCCCNC(=O)COCCOCCNC(=O)COCCOCCNC(=O)CC[C@H](NC(=O)CCCCCCCCCCCCCCCCCCC(=O)O)C(=O)O)C(=O)N[C@@H](CC(C)C)C(=O)N[C@@H](CCC(=O)O)C(=O)N[C@H](C(=O)NCC(=O)N1CCC[C@H]1C(=O)N[C@@H](CO)C(=O)N[C@@H](CO)C(=O)NCC(=O)N[C@@H](C)C(=O)N1CCC[C@H]1C(=O)N1CCC[C@H]1C(=O)N1CCC[C@H]1C(=O)N[C@@H](CO)C(N)=O)[C@@H](C)O)C(C)C
B5: Example 103 (peptide)
peptide: Y[Aib]EGTFISDYSI[αMeL]LD[Orn]IHQ[Aib]DFVEYK([AEEA-AEEA-γGlu-C18 diacid])LEGGPSSGAPPPS-NH2
modifications: N-terminus assumed
SMILES: CC[C@H](C)[C@H](NC(=O)[C@H](CCCN)NC(=O)[C@H](CC(=O)O)NC(=O)[C@H](CC(C)C)NC(=O)[C@](C)(CC(C)C)NC(=O)[C@@H](NC(=O)[C@H](CO)NC(=O)[C@H](Cc1ccc(O)cc1)NC(=O)[C@H](CC(=O)O)NC(=O)[C@H](CO)NC(=O)[C@@H](NC(=O)[C@H](Cc1ccccc1)NC(=O)[C@@H](NC(=O)CNC(=O)[C@H](CCC(=O)O)NC(=O)C(C)(C)NC(=O)[C@@H](N)Cc1ccc(O)cc1)[C@@H](C)O)[C@@H](C)CC)[C@@H](C)CC)C(=O)N[C@@H](Cc1c[nH]cn1)C(=O)N[C@@H](CCC(N)=O)C(=O)NC(C)(C)C(=O)N[C@@H](CC(=O)O)C(=O)N[C@@H](Cc1ccccc1)C(=O)N[C@H](C(=O)N[C@@H](CCC(=O)O)C(=O)N[C@@H](Cc1ccc(O)cc1)C(=O)N[C@@H](CCCCNC(=O)COCCOCCNC(=O)COCCOCCNC(=O)CC[C@H](NC(=O)CCCCCCCCCCCCCCCCC(=O)O)C(=O)O)C(=O)N[C@@H](CC(C)C)C(=O)N[C@@H](CCC(=O)O)C(=O)NCC(=O)NCC(=O)N1CCC[C@H]1C(=O)N[C@@H](CO)C(=O)N[C@@H](CO)C(=O)NCC(=O)N[C@@H](C)C(=O)N1CCC[C@H]1C(=O)N1CCC[C@H]1C(=O)N1CCC[C@H]1C(=O)N[C@@H](CO)C(N)=O)C(C)C
B6: Example 7 (peptide)
peptide: Y[Aib]EGTFISDYSI[αMeL]LD[Orn]IHQ[Aib]EFV[dE]YK([AEEA-AEEA-γGlu-C18 diacid])LEGGPSSGAPPPS-NH2
modifications: N-terminus assumed
SMILES: CC[C@H](C)[C@H](NC(=O)[C@H](CCCN)NC(=O)[C@H](CC(=O)O)NC(=O)[C@H](CC(C)C)NC(=O)[C@](C)(CC(C)C)NC(=O)[C@@H](NC(=O)[C@H](CO)NC(=O)[C@H](Cc1ccc(O)cc1)NC(=O)[C@H](CC(=O)O)NC(=O)[C@H](CO)NC(=O)[C@@H](NC(=O)[C@H](Cc1ccccc1)NC(=O)[C@@H](NC(=O)CNC(=O)[C@H](CCC(=O)O)NC(=O)C(C)(C)NC(=O)[C@@H](N)Cc1ccc(O)cc1)[C@@H](C)O)[C@@H](C)CC)[C@@H](C)CC)C(=O)N[C@@H](Cc1c[nH]cn1)C(=O)N[C@@H](CCC(N)=O)C(=O)NC(C)(C)C(=O)N[C@@H](CCC(=O)O)C(=O)N[C@@H](Cc1ccccc1)C(=O)N[C@H](C(=O)N[C@H](CCC(=O)O)C(=O)N[C@@H](Cc1ccc(O)cc1)C(=O)N[C@@H](CCCCNC(=O)COCCOCCNC(=O)COCCOCCNC(=O)CC[C@H](NC(=O)CCCCCCCCCCCCCCCCC(=O)O)C(=O)O)C(=O)N[C@@H](CC(C)C)C(=O)N[C@@H](CCC(=O)O)C(=O)NCC(=O)NCC(=O)N1CCC[C@H]1C(=O)N[C@@H](CO)C(=O)N[C@@H](CO)C(=O)NCC(=O)N[C@@H](C)C(=O)N1CCC[C@H]1C(=O)N1CCC[C@H]1C(=O)N1CCC[C@H]1C(=O)N[C@@H](CO)C(N)=O)C(C)C

In the assay the target is T1, human glucose-dependent insulinotropic …. As to the kind of experiment: SPA, displacement of [125I]-GIP from hGIPR membranes, 0.1% bacitracin.
Turning to Y[Aib]EGTFISDYSI[αMeL]LD[Orn]IHQ[Aib]DFV[dE]YK([AEEA-AEEA-γGlu-C20 diacid])LEGGPSSGAPPPS-NH2 [Example 101], the Ki (usually a dissociation constant, usually derived from enzyme kinetics or from competition with a known ligand) worked out at 0.139 nM.
B1: the inhibition constant (Ki) is 0.232 nM.
As to B2, the inhibitory constant (Ki) was found to be 0.164 nM.
For the molecule B3, the inhibitory constant (Ki) amounted to 0.134 nM.
The figure for B4 is 0.174 nM; for B5 it is 0.0405 nM; for B6 it is 0.193 nM.

The values above are taken from patent publication US20210032299A1.
